The values that follow come from US20240239901A1.

In experiment [1] the target is human purified airway mucins (purified from induced sputum of five asthmatic donors, pooled). Briefly: plate binding assay: purified mucins coated, FLAG-ITLN-1 with heparin (150 pg/mL as printed) in the binding buffer.
Experiment [2] shares this target. As to the kind of experiment: plate binding assay: purified mucins coated, FLAG-ITLN-1 with dextran sulfate (150 pg/mL as printed) in the binding buffer.

As for “FLAG-tagged recombinant ITLN-1 (Sigma, SRP8047) (from UniProt Q8WWA0 19-298) (ligand)”, the percent decrease of binding in the presence of heparin in experiment [1] turned out to be 51.9%. Besides, the percent decrease of binding in the presence of dextran sulfate in experiment [2] is 74%.
